According to the nanobody polyreactivity screen of Harvey et al. (2022):

Test: yeast display, Sf9 membrane polyspecificity reagent, FACS + sequencing; frameworks hold sequencing errors
Outline: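 A synthetic nanobody library was expressed on Saccharomyces cerevisiae BJ5465 by galactose induction for 36–48 hours. The library was stained for 1 hour at 4 °C with 10% biotinylated, detergent-solubilized Sf9 membrane reagent and enriched with streptavidin microbeads before FACS. Low and high (top ~1%) gates were set on anti-HA fluorescence for expression and streptavidin fluorescence for reagent binding, and each polyreactivity label reflects the gate of origin.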
In the case of “QVQLVESGGGLVQAGGSLRLSCAASGSTFTFNAMAWYRQAPGKEREFVAAITASGGRTYYADSVKGRFTISRDNAKNTVYLQMNSLKPEDTAVYYCNASQWPSRFDYWGQGTQVTVSS”, the “polyreactivity (PSR sort gate)” value is reported as “low polyreactivity”. With “QVQLVESGGGLVQAGGRLRLSCAASGFTVSYYGMGWSRQAPGKERELVATISSSGSTNYADSVKGRFTISRDNAKNSVYLQMNSLKPEDTAVYYCATDYADAGYYTTFDYWGQGTQVTVSS” the “polyreactivity (PSR sort gate)” value was “high polyreactivity”. With “QVQLVESGGGLVQAGGSLRLSCAASGRIFRYNAMGWYRQAPGKERELVATISWSGGRTYYADSVKGRFTISRDNAKNTVYLQMNSLKPEDNAVYYCAAYSYRGFGEYDYWGQGTQVTVSS” the “polyreactivity (PSR sort gate)” value was “high polyreactivity”. For “QYQLVESGGGLVQAGRTLRLSWAASGRIFVRYVMGCYRQAPVKERELVAAISSSGGSTYYADSVKGRFTISRDNAKNWVYLQIYSLKPEDTAVYYCATDFMDKYILPYDYWGQGTQVTVSS”, the “polyreactivity (PSR sort gate)” value was “low polyreactivity”. For “QVQLVESGGGLVQAGGSLPLSCAASGLTFYRYAMGWYREAPGKERELVAAISFSGGSTYYADSVKGRFTISRDIAKYTVYIQMNCLKPEDTAVYYCAASYQGRRYQDRYDYWGQGNQVTVSS”, the “polyreactivity (PSR sort gate)” value was “high polyreactivity”. With “QVQLVESGGGLVQAGGSLRLSCAASGSIFQIYAMGWYRQAPGKERELVAAINSGGITKYADSVKGRFTISRDNAKNTVYLQMNSLKPEDTAVYYCAKRYGWPYGRFDYWGQGTQVTVSS” the “polyreactivity (PSR sort gate)” value was “low polyreactivity”. In the case of “QVQLVESGGGLVQAGGSLRLSCAASGRIFPRNTMGWYRQAPGKERELVAAISQSGGRTYYADSVKGRFTISRDYAKNTVYLQMNSLKPEDTAVYYCAAREYRYDMYYWGQGTQVTVSS”, the “polyreactivity (PSR sort gate)” value is reported as “high polyreactivity”. For “QVQLVESGGGLVQAGGSLRLSCAASGSIFKWYTMGWYRQAPGKERELVAGISRGGSTYYADSVKGRFTISRDNAKNTVYLQMNSLKPEDTAVYYCAKASAIWRGDVKYYYWGQGTQVTVSS”, the “polyreactivity (PSR sort gate)” value was “high polyreactivity”. In the case of “QVQLVESGTGLVQAGGSLRLSCADSGITFVFYSMGSYRQAPGKESELVATISYRGTSTYYADSVKGLFTISRDNAKNSVSLQMNSLKPEDTAVYYCAADTFIYYKTGYGYWGQGTQVTVSS”, the “polyreactivity (PSR sort gate)” value is reported as “low polyreactivity”. With “QVQLVESGGGLVQAGGSLRLSCAASGSIFGYYAMGWYRQAPGKERELVAAIWRGDNTYYADSVKGRFTISRDNAKNTVYLQMNSLKPEDTAVYYCAARYWSRRIFREGYWGQGTQVTVSS” the “polyreactivity (PSR sort gate)” value was “low polyreactivity”. In the case of “QVQLVESGGGLVQAGGSLRLSCAASGSTFDTYAMGWYRQAPGKERELVAAISSGGSTNYADSVKGRFTISRDNAKNTVYLQMNSLKPEDTAVYYCADSYKSVFPVYGTLDEYWGQGTQVTVSS”, the “polyreactivity (PSR sort gate)” value is reported as “low polyreactivity”. In the case of “QVQLVESGGGLVQAGGSLRLSCAASGSILWVNAMGWYRQAPGKERELVAAITSGGDSTNYADSVKGRFTISRDNAKNTVYLQMNSLKPEDTAVYYCNAEFWLNEDLDYDTSYDYWGQGTQVTVSS”, the “polyreactivity (PSR sort gate)” value is reported as “low polyreactivity”. In the case of “QVQLVESGGGLVQAGGSLRLSCAASGFTFYFYAMGWYRQAPGKERELVAAISRGGSTTYADSVKGRFTISRDNAKNTVYLQMNSLIPEDTAVSYCKADIYTWFQIGGYQYDYWGQGTQVTVSS”, the “polyreactivity (PSR sort gate)” value is reported as “low polyreactivity”. With “QVQLVESGGGLVQAGGSLRLSCAASGRIFHQNTMGWYRQAPGKERELVAAISATGGGTNYADSVKGRFTISRDNAKNTVYLQMNSLKPEDTAVYYCAVRPKTSWYSWYYWGQGTQVTVSS” the “polyreactivity (PSR sort gate)” value was “low polyreactivity”. With “QVQLVESGGGLVQAVGSLRLSCAASGSIFTPYAMGWYRQAPGKERELVAAISGSGGSTRYADSVKGRFTISRDNATNTVYLQMNSLKPEDTAVYYCAADRYTYIWYHIYDYWGQGTQVTVSS” the “polyreactivity (PSR sort gate)” value was “low polyreactivity”. For “QVQLVESGGGLVHAGGSLRLSCAASGYTFQAYAMGWYRQPPGKERELVAAISFSSGSTYYADSVKGRFTISRDNAKNTVYLQMNSLKPEDTAVYDCATDNWSVNGGYNYWGQGTQVTVSS”, the “polyreactivity (PSR sort gate)” value was “low polyreactivity”. In the case of “QVQLVESGGGLVQAGGSLRLSCAASGSTFSGYDMGWYRQAPGKERELVAAISKSGGRTYYADSVKGRFTISRDNAKNTVYLQMKSLKPEDTAVYYCNTDSPYDTYYFLWWREDYYWGQGTQVTVSS”, the “polyreactivity (PSR sort gate)” value is reported as “low polyreactivity”. With “QVQLVESGGGLVQAGGSLRLSCAASGSTFSVYAMGWYRQAPGKERELVATIRGRGGSTSYADSVKGRFTISRDNAKNTVYLQMNSLKPEDTAVYYCAARVVRDWASKRIILALSNYDYWGQGTQVTVSS” the “polyreactivity (PSR sort gate)” value was “high polyreactivity”. With “QVQLVESGGGLVQAGGSLRLTCAASGRIFPRNTMGWYRQAPGKERELVAAISVSGGSTYYADSVKGRFTNSRDNAKNTVYLQMNSLKPEDTAVYYWAARSARLEYYYWGQGTQVTVSS” the “polyreactivity (PSR sort gate)” value was “high polyreactivity”. With “QVQLVESGGGLFQAGGSLRLSCAASGSTFYIYAMGWYRQAPGKEREFFAAIDFSGSSTYADSEKGRFTISRDNAKNTVYVQMNSLKPEDTAVYYCAAYQIYQYDGPYDYWGQGTQVTVSS” the “polyreactivity (PSR sort gate)” value was “low polyreactivity”. For “QVQLVESGGGLVQAGGSLRLSCAASGSTFAYYAMGWYRQAPGKERELVAAINYRATRTYYADSVKGRFTISRDNAKNTVYLQMNSLKPEDTAVYYCAAVSPNTAYDYWGQGTQVTVSS”, the “polyreactivity (PSR sort gate)” value was “high polyreactivity”. For “QVQLVESGGGLVQAGGSLRLSCAASGRIFRYYTMGWYRQAPGKERELVATITSDGRTNYADSVKGRFTISRDNAKNTVYLQMNSLKPEDTALYYCAAVYHRSYSLQSYGYWGQGTQVTVSS”, the “polyreactivity (PSR sort gate)” value was “high polyreactivity”. For “QVQIVESGVGLVQAGGSLRLSCAASGTIFARYAMGWYRQAPGKERELVAAISWRGGRTYYADSVKGRFTISRDNAKNTVYLQMNSLKPEVTAVYYCAARRQQRGANGGDYWGQGTQVTLSS”, the “polyreactivity (PSR sort gate)” value was “high polyreactivity”. For “QVQLVESGGGLVQAGGSLLLSCAASGRTFQDNAMGWYRQAPGKERELVAAISWRGGSTNYADSVKGRFTISRDNAKNTVYLQMNSLKPEDTAVYYCTRDPRKYGKLDYWGQGTQVTVSS”, the “polyreactivity (PSR sort gate)” value was “low polyreactivity”. For “QVQLVESGARLVPAGGTLRLSFADYGFNFGQYAMAWYRQAPGKERELVAAISWSGGSTYYAESVKGRFTISRDNAKNTVYLQMNSLKPEDTAVYYCGEELGDYWGQGTQVTVSS”, the “polyreactivity (PSR sort gate)” value was “high polyreactivity”. For “QVQLVESGGGLVQAGGSLRLSCAASGFTFTAYAMGWYRQAPGKERELVAAISYRGGRTNYAYSVKGRFTISRDNAKNTVYLQMNSLKPEDTAVYYCAARPRISTREMDYWGQGTQVTVSS”, the “polyreactivity (PSR sort gate)” value was “high polyreactivity”. For “QVQLVESGGGLVQAGGSLRLSCAASGYIFGVYAMGWYRQAPGKERELVAVISSGDRTNYADSVKGRFTISRDNAKNTVYLQMNSLKPEDTAVYYCAADGRSPSYYGYDHWGQGTQVTVSS”, the “polyreactivity (PSR sort gate)” value was “low polyreactivity”. In the case of “QVQLVESGGGLVQAGGSLRLSCAASGFIFTWYAMGWYRQAPGKEREFVAGISRSGGRTYYADSVKGRFTISRDNAKNTVYLHVNSLKPEVTAVFYCGAKYYIGFWLRDYYYWGQCTQVTVSS”, the “polyreactivity (PSR sort gate)” value is reported as “high polyreactivity”. With “QVQLVESGGGLVQAGGSLRLTCAASGLTFPSYSMGWYRQAPGKERELVAAIYYSGGSTYYADSVKGRFTISRDNAKITVYIHMNSLKPEDTAVYYCAADFTSFFNRIDYWGQGTQVTVSS” the “polyreactivity (PSR sort gate)” value was “low polyreactivity”. With “QVQLVESGGGLVQAGGSLRLSCAASGSTFWANAMGWYRQAPGKERELVAAITSTGITYYADSVKGRFTISRDNAKNTVYLQMNSLKPEDTAVYYCNTRGTYRYDYWGQGTQVTVSS” the “polyreactivity (PSR sort gate)” value was “low polyreactivity”. With “QVQLVESGGGLVQAGGSLRLSCAASGSISNQYVMGWYRQAPGKERELVAAIRVIGGSTSYADSVKGRFTISRDNAKNTVYLQMNSLKPEDTAVYYCAADWAWTISDGYYYGYPQYDYWGQGTQVTVSS” the “polyreactivity (PSR sort gate)” value was “high polyreactivity”. In the case of “QVQLVESGGGLVQAGGSLRLSCAASGSIFETYDMGWYRQAPGKERELVAAITLSGGSTYYADSVKGRFTISRDNAKNTVYLQMNSLKPEDTAVYYCAADDSGVKVWEGDYWGQGTQVTVSS”, the “polyreactivity (PSR sort gate)” value is reported as “low polyreactivity”. For “QVQLVESGGGLVQAGGSLRLSCAPSGNIFYINTMGWYRPAPGKERELVAAIDASDGSTYYADSVKGRFTISRDNAKNTVYLQMNSLKPEDTAVYYCATRRGYDSVYYLYTLWYYYWGQGTQVTVSS”, the “polyreactivity (PSR sort gate)” value was “low polyreactivity”. With “QVQLQESGGGLVQAGGSLRLSCAASGSISGPHVMGWSRQAPGKEREFVAAINVGANTYYADNVKGRFTISRDNAKNTVYLRMNSLKPEDTAVYYCAAVYYGDIGHEYWGQGTQVTVSC” the “polyreactivity (PSR sort gate)” value was “low polyreactivity”. With “QVQLVESGCGLVHAGGSLRLSCAASGRILRYYAMGWYGQAPGKDRELVAVITSSDGSTYYADSVKGRITISRDNAMNTVYLQMNSLKPEDTAVYYCAAAPLWRLASWWDPYRRYDYWGQGTQVTVSS” the “polyreactivity (PSR sort gate)” value was “low polyreactivity”. For “QVQLVESGGGLVQAGGSLRLSCAASGFTFKYNAMGWYRQAPGKERELVAAITASGGSTRYADSVKARFTISRDNAKNTVYLQMNSLKPEDTAVNYCAARKWFPRYSASPRSHGPYDYWGLGTQVTVSS”, the “polyreactivity (PSR sort gate)” value was “high polyreactivity”. For “QVQRVESGGGLVQAGGSLRLSCAASGYILPRYAMGWYIQAPGKERELVAAITSGGITSYADSVKGRFTISRDNAKNTVYLQMNSLKPEDTAVYYCAADWYVIYDYWGQGTQVTVSS”, the “polyreactivity (PSR sort gate)” value was “low polyreactivity”. With “QVQLVEAGGGLVQAGGSLRLSCAASGIIFYLYTMGWYRPAPGKERELVAAISSSDGSTYYADSVKGRFTISRDNAKNTVYLQMNSLKPEDTAVYYCAAEYRGYLDDYYYWGQGTQVTVSS” the “polyreactivity (PSR sort gate)” value was “high polyreactivity”. In the case of “QVQLVESGGGLVQAGGSLRLSCAASGIIFFRNAMGWYRQAPGKERELVAAISSGGSTYYADSVKGRFTISRDNAKNTVYLQMNSLKPEDTAVYYCNKVVPLYYASYDYWGQVTQVTVSS”, the “polyreactivity (PSR sort gate)” value is reported as “low polyreactivity”. With “QDQLVESGGGLVQAGGSLRLSCAASGRNFPGYVMGWYRQAPGKERELVAVITSNGGITYYADSVKGRFTISRDNAKNTVYLQMNSLKPEDTAVYYCAAYEIYYEFDSWGQGTLVTVSS” the “polyreactivity (PSR sort gate)” value was “low polyreactivity”. With “QVQLVESGGGLFQEGGSLRLSCAPCGLIFFSYAMGWYRQAPGTERELVAAISRLGGRTYYADSVKGRFTISRDNAKNTVYLQMNSLKPEDTAVYYCATRVWTPIFGYEYWGQGTQVTVSS” the “polyreactivity (PSR sort gate)” value was “low polyreactivity”. With “QVQLVQSGGGLVQAGGSLRLSCAASGRTFGYYAMGWYRQAPGQERELVAAITRTGGSTHYADSVKGRFTISRDNAKNTVYVQMNSLKPVDTAVYYCARDYRYTIPYDYWGQGTQVTVSS” the “polyreactivity (PSR sort gate)” value was “low polyreactivity”. With “QVQLVESGGGLVQAGVSLRLSCAASGSTFDTYAMGWYRQAPGKERELVAAISGSGVRTYYADSVKGRFTISRDNAKYTVYLQMNSLKPEDTAVYYCATTGYARRFDYWGQGSQVTVSS” the “polyreactivity (PSR sort gate)” value was “high polyreactivity”.
